Blank lines part the entries; values can stand above or below the molecule they belong to.
Assays:
[1] = target: Bacillus megaterium SqvB (DUF4867 family member) (Bacillus megaterium); experiment: SEC-MALS; SEC-MALLS; 100 ul injected at 2.7 mg/mL; running buffer 50 mM Tris pH 7.5, 300 mM NaCl; room temperature (20 ± 2 °C)
purified protein = substrate: O=[N+]([O-])c1ccc(O[C@H]2O[C@H](CS(=O)(=O)O)[C@@H](O)[C@H](O)[C@H]2O)cc1; experiment: purified protein; type: biochemical, Agathobacter rectalis; details: PBS (50 mM sodium phosphate, 150 mM NaCl), pH 6.5, 30 °C

stoichiometry N [1]: 2
Molecule: Bacillus megaterium SqvB (DUF4867 family member) (natural protein)

B1: SftG (E. rectale SftG SQase) (Agathobacter rectalis ATCC 33656) (protein)
chain: MQIKVNDNEFQLFVGEKRILEHSKERPMIYVGVGQEDVDMYRGNFKITDYVTERFPLKLTDVIQTADTVRLCFESYIIAKIKCDENLCTIDFEQKDDRINRFWFRVAADKEEKCYGCGEQMSYFNLRGRNFPIWTSEPGVGRDKTTYVTWRSDVENKAGGDYYNTNYPQPTFVSTNKYYLHVDSTAYADFDFRNDSFHELQIWEVPKQIRIECADTYLKLLERITTYFGRQPKLPDWVYNGLIIGVQGGNERSFGLLDKTLDRNIKVAGIWCQDWCGKRVTSFGKRLQWDWKYHKEMYPDLPKKIKEINAKGIKFLGYVNPYLVNDGELYKEGKEKGYFATKADGSDYLVDFGEFYCGVVDLTNPEAFEWFKDIIKEYTLGIGIDGWMADFGEYLPTDDICLYSGKSPMIEHNHWPVLWAKCNYEAVKESGKLGDVVYFMRAGGAGSQKYCTLLWAGDQSVDFTIHDGLASVICGALSAGMMGCGLTHSDIGGYTSLFDNTRTKELFLRWAEMAMFTPFMRTHEGNRPDTNFQYYDDEDTMERLARLVDVYTMLAPYTKTLVEENADSGHPVQRPLFMHYESDAKAYDIQYEYLFGRDMLIAPVYEQDKHEWDVYLPQDEWVHLWTGEEYHGGEITVSAELGYTPAFYRKNSEFADIFEEIREKYGVK
notes: codon-optimised gene in pET29a(+), C-terminal His6 tag, expressed in E. coli NEB T7 Express
Km (purified protein): 478 ± 30 µM
kcat (purified protein): 78.8 ± 3.9 s⁻¹
kcat/Km (purified protein): 165000 ± 18000 M⁻¹ s⁻¹

Source: paper PMC11968277, “Sulfoglycolysis sustains Eubacterium rectale in low-fiber diets” (The Journal of Biological Chemistry, 2025)
